The values below come from publication PMC10208891.

A short description of data set [1]: nuclear and cytoplasmic fractionation, immunoblot. The conditions noted are these: glycan lost; control: SFB-YTHDF1-WT.
Data set [2] can be described thus: anti-Flag immunofluorescence with DAPI. The conditions noted are these: glycan lost; control: SFB-YTHDF1-WT, untreated.

B1: YTH domain family 1 (YTHDF1): AFA (protein)
parent chain: MSATSVDTQRTKGQDNKVQNGSLHQKDTVHDNDFEPYLTGQSNQSNSYPSMSDPYLSSYYPPSIGFPYSLNEAPWSTAGDPPIPYLTTYGQLSNGDHHFMHDAVFGQPGGLGNNIYQHRFNFFPENPAFSAWGTSGSQGQQTQSSAYGSSYTYPPSSLGGTVVDGQPGFHSDTLSKAPGMNSLEQGMVGLKIGDVSSSAVKTVGSVVSSVALTGVLSGNGGTNVNMPVSKPTSWAAIASKPAKPQPKMKTKSGPVMGGGLPPPPIKHNMDIGTWDNKGPVPKAPVPQQAPSPQAAPQPQQVAQPLPAQPPALAQPQYQSPQQPPQTRWVAPRNRNAAFGQSGGAGSDSNSPGNVQPNSAPSVESHPVLEKLKAAHSYNPKEFEWNLKSGRVFIIKSYSEDDIHRSIKYSIWCSTEHGNKRLDSAFRCMSSKGPVYLLFSVNGSGHFCGVAEMKSPVDYGTSAGVWSQDKWKGKFDVQWIFVKDVPNNQLRHIRLENNDNKPVTNSRDTQEVPLEKAKQVLKIISSYKHTTSIFDDFAHYEKRQEEEEVVRKERQSRNKQ
Consider B1, for which the localisation_or_trafficking entry in data set [1] and in data set [2] was “changes” throughout.
